Here are results for one substance from article PMC7022778.

By stoichiometry N is commonly meant the number of molecules, sites or subunits per partner or assembly.

The test addresses catalase from Serratia sp. strain I1P (Serratia sp. strain I1P). In words: SEC; Superdex-200 in 50 mM Tris HCl pH 8.0 with 0.2 M NaCl, calibrated with standard proteins; native apparent mass compared with the subunit mass by SDS-PAGE. A general note: In gel filtration, larger molecules generally elute earlier.

Consider “catalase from Serratia sp. strain I1P (enzyme)”, for which the stoichiometry N is 4.
